Data published in article PMC5018819 (Scientific Reports, 2016).

B1: PfCK (Plasmodium falciparum 3D7) (protein)
chain: MESKICDPIGLDKNKFRKVEEENEENSKIVENGQMTYNDDLEMFTTIQLNQEIDIRKNPFPLHMINQKNDIPLCAQEFSKLTDPLYIKKICLEKVHDWSRCNEDDVCVNQILSGLTNQLFEVSIKEDTAIEYRITRRHVLFRIYGKDVDALYNPLSEFEVYKTMSKYRIAPLLLNTFDGGRIEEWLYGDPLSIDDLKNKSILVGIANVLGKFHTLSRKRHLPEHWDKTPCVFKMMDRWRLAVSNYKNLDKVTLDINKYIQESHKFLKFIKIYTQIENIANDIVFCHNDLQENNIMNTNKCLRLIDFEYSGYNFLSADIANFFIETTIDYSYNAYPFFIINKKNYISYESRILFVTTYLSKYLDDSTAASDQDIIDQFLEAIEVQALGLHLIWAFWSIIRGYQTKSYNEFDFFLYAKERLKMYDEQKQYLMSKNIIKDYDD
notes: made in house
B2: PfEK (Plasmodium falciparum 3D7) (protein)
chain: EYQLREIDESEKEITQQRKKNSVTTKNFDNLSNSNSQITEMTNEQGVIPLREKDLTINVGDNRNLKVEEFMTNFISNVFENKNALFLYCKYVLLFYGKELLNENNVESLNFEIIKGGITNILVKVEDNIHQNKYLIRLYGPKTSEIINREREKLISNILCDKNISKKIYVFFPNGRIEEFKDGYALSREDIKNKDFQKEIAENLRILHDIQLDDTIYKKLQALQNIQGNRSSFLWSTLWKYFNTLKEERQKKYSFNPKAYILKLIDFDMLESIITEIQELCCKKNSPVVLCHCDLLSSNIIKTEGSSISFIDFEYSCPMERAYDIANHFNEYAGFNCEWDLTPNRSEEYHFIKHYLKTDDEQLINQLIDEIQPFYVCSHIVWGLWALLQGLHSVIDFDFINYGMTRLTAAFSVKFRSKL

Experiments:
[1] = substrate: C[N+](C)(C)CCO; assay: purified protein, by the assay type; conditions: other: PfCK, Cho varied, ATP constant; pH 7.8
[2] = substrate: NCCO; assay: kinetic analysis of recombinant enzyme (substrate saturation); format: biochemical, P. falciparum; conditions: Etn varied, ATP constant, pH 7.8
Experimental: (§1) A continuous spectrophotometric 96-well plate assay was established for CK and EK activity based on an assay described. […] The reaction was initiated by addition of enzyme or substrate, as appropriate, and the rate of reaction was monitored by following the decrease in absorbance at 341 nm for 10 min at room temperature using a Thermo Multiska spectrophotometer. Experiments were carried out to ensure that coupling enzymes were not rate-limiting under any of the conditions used and control experiments lacking substrates and/or enzyme were carried out to correct for any background rate.
(§2) One substrate was held constant at the concentration specified above while the second substrate was varied. Any ATPase activity was controlled for and subtracted from the rates (PfEK only). Curves were plotted and Km and Vmax values estimated using Grafit 5 (Erithacus Software Ltd).

[3] = substrate: Nc1ncnc2c1ncn2[C@@H]1O[C@H](COP(=O)(O)OP(=O)(O)OP(=O)(O)O)[C@@H](O)[C@H]1O; assay: as above; format: biochemical, P. falciparum; conditions: ATP varied, pH 7.8
Experimental: as §1, §2

Protein | Km [1] [µM] | Vmax [1] [µmol/min/mg] | kcat [1] [s⁻¹] | kcat/Km [1] [M⁻¹ s⁻¹] | Km ([2]; other: PfCK) [µM] | Vmax ([2]; other: PfCK) [µmol/min/mg] | kcat ([2]; other: PfCK) [s⁻¹] | kcat/Km ([2]; other: PfCK) [M⁻¹ s⁻¹] | Km ([3]; other: PfCK) [µM] | Km ([2]; other: PfEK) [µM] | Vmax ([2]; other: PfEK) [µmol/min/mg] | kcat ([2]; other: PfEK) [s⁻¹] | kcat/Km ([2]; other: PfEK) [M⁻¹ s⁻¹] | Km ([3]; other: PfEK) [µM]
B1 | 210 ± 30 | 3.3 | 2.9 | 13800 | 3300 ± 300 | 1.7 | 1.5 | 450 | 130 ± 10 | – | – | – | – | –
B2 | – | – | – | – | – | – | – | – | – | 80 ± 20 | 0.03 | 0.025 | 310 | 70 ± 30
